The source of these data is the supplement of paper PMC7125110.

± gives the standard error. For part of these data: This sample holds only a part of the variants without activity. A value given as a limit tells only on which side of the number the result lay.

The labels stand for the following.
B1: glmS ribozyme (parent)
chain: AUAAAAGCGCCAGAACUACAGAAAUGUAGUUGACGAGGAGGAGGUUUAUCGAAUUUUCGGCGGAUGCCUCCAAA

Conditions in all cases: with glucosamine-6-phosphate
The variants in data set [1] derive from B1. Briefly: kcat; higher = faster cleavage; RNA array. The gist of the method:
(§1)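 The measurements used barcoded ribozyme variants on sequenced MiSeq chips, transcribed in situ by E. coli RNA polymerase and tracked at 37 °C with a hybridised Cy3 probe. Glucosamine-6-phosphate, 40 μM to 10 mM in HEPES/KCl/Mg(OAc)2 buffer, was flowed in while tiles were imaged over ~14 h. Baseline-normalised signals, also normalised to non-cleaving reference variants, gave per-tile medians that were fit to one- or two-exponential decays for kobs. kcat and KM resulted from weighted Michaelis–Menten fits across concentrations.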

Data set [2] covers variants of B1. Briefly: KM; higher = weaker cofactor use; RNA array. The gist of the method:
as §1

Data set [3] covers variants of B1. Briefly: self-cleavage kobs at 40 uM GlcN6P; higher = faster cleavage; RNA array. The method, boiled down:
as §1

Data set [4] covers variants of B1. Briefly: self-cleavage kobs at 160 uM GlcN6P; higher = faster cleavage; RNA array. The method, boiled down:
as §1

The variants in data set [5] derive from B1. Briefly: self-cleavage kobs at 640 uM GlcN6P; higher = faster cleavage; RNA array. The method, boiled down: as §1
Data set [6] covers variants of B1. Briefly: self-cleavage kobs at 2500 uM GlcN6P; higher = faster cleavage; RNA array. The gist of the method: as §1
Data set [7] covers variants of B1. Briefly: self-cleavage kobs at 10000 uM GlcN6P; higher = faster cleavage; RNA array. The gist of the method:
as §1

The kcat is the number of substrate molecules converted per active site and unit of time at saturation. One may read the KM as the substrate concentration at which the rate is half of its maximum. For the variant A14C U55A, the kcat in data set [1] came out at 0.00676 ± 0.0017 s⁻¹. For the same variant, the KM in data set [2] amounted to 2080 ± 720 µM. Further, the “self-cleavage kobs at 40 uM GlcN6P” value in data set [3] was 0.000144 ± 1.6e-05 s⁻¹. In addition, in data set [4], the “self-cleavage kobs at 160 uM GlcN6P” value came to 0.000546 ± 8.1e-05 s⁻¹. In addition, the “self-cleavage kobs at 640 uM GlcN6P” value in data set [5] turned out to be 0.00145 ± 0.00015 s⁻¹. For the same variant, the “self-cleavage kobs at 2500 uM GlcN6P” value in data set [6] worked out at 0.0031 ± 0.00043 s⁻¹. The “self-cleavage kobs at 10000 uM GlcN6P” value in data set [7] stood at 0.00734 ± 0.00098 s⁻¹.

Consider C16U U69A, for which the kcat in data set [1] was 0.000112 ± 2.4e-05 s⁻¹. Besides, in data set [3], the “self-cleavage kobs at 40 uM GlcN6P” value is 7.08e-05 ± 2e-05 s⁻¹. In addition, the “self-cleavage kobs at 160 uM GlcN6P” value in data set [4] was 6.03e-05 ± 2e-05 s⁻¹. For the same variant, the “self-cleavage kobs at 640 uM GlcN6P” value in data set [5] is 9.39e-05 ± 3.7e-05 s⁻¹. Moreover, the “self-cleavage kobs at 2500 uM GlcN6P” value in data set [6] came out at 0.00022 ± 6.1e-05 s⁻¹. Moreover, the “self-cleavage kobs at 10000 uM GlcN6P” value in data set [7] stood at 0.000115 ± 2e-05 s⁻¹.

In the case of A39C C70A, the kcat in data set [1] is less than 1e-05 s⁻¹. In addition, the “self-cleavage kobs at 40 uM GlcN6P” value in data set [3] is less than 1e-05 s⁻¹. In data set [5], the “self-cleavage kobs at 640 uM GlcN6P” value was less than 1e-05 s⁻¹.

Take A15G G37U U54A U55A G60C C68G: the kcat in data set [1] worked out at 2.16e-05 ± 6.5e-06 s⁻¹.

In the case of A15G C70G, the kcat in data set [1] is 0.000355 ± 6.5e-05 s⁻¹. Moreover, the Michaelis constant (KM) in data set [2] was found to be 180 ± 79 µM. The “self-cleavage kobs at 40 uM GlcN6P” value in data set [3] stood at 8.28e-05 ± 1.3e-05 s⁻¹. In data set [4], the “self-cleavage kobs at 160 uM GlcN6P” value worked out at 0.000137 ± 1.9e-05 s⁻¹. Besides, in data set [5], the “self-cleavage kobs at 640 uM GlcN6P” value was 0.000303 ± 2.7e-05 s⁻¹. Besides, the “self-cleavage kobs at 10000 uM GlcN6P” value in data set [7] came out at 0.00033 ± 5.4e-05 s⁻¹.

For U30A C71A, the kcat in data set [1] came out at 0.00089 ± 0.00018 s⁻¹. In addition, in data set [2], the KM came out at 603 ± 230 µM. Besides, the “self-cleavage kobs at 40 uM GlcN6P” value in data set [3] came out at 5.08e-05 ± 1.3e-05 s⁻¹. In data set [5], the “self-cleavage kobs at 640 uM GlcN6P” value was determined as 0.000632 ± 0.0002 s⁻¹. The “self-cleavage kobs at 2500 uM GlcN6P” value in data set [6] worked out at 0.000946 ± 0.00022 s⁻¹. Further, the “self-cleavage kobs at 10000 uM GlcN6P” value in data set [7] came to 0.00072 ± 0.00016 s⁻¹.

In the case of G32C A53G, in data set [1], the kcat was determined as 0.000158 ± 4.6e-06 s⁻¹. The KM in data set [2] was 3340 ± 200 µM. In addition, the “self-cleavage kobs at 640 uM GlcN6P” value in data set [5] is 2.67e-05 ± 9.1e-06 s⁻¹. The “self-cleavage kobs at 2500 uM GlcN6P” value in data set [6] was 6.68e-05 ± 8.8e-06 s⁻¹. In addition, the “self-cleavage kobs at 10000 uM GlcN6P” value in data set [7] turned out to be 0.000119 ± 1.5e-05 s⁻¹.

Regarding U49A C68G, the kcat in data set [1] is 2.5e-05 ± 5.3e-06 s⁻¹.

Turning to U45C C68U, in data set [1], the kcat was found to be 0.00315 ± 0.00089 s⁻¹. In addition, the KM in data set [2] is 4960 ± 2100 µM. Further, the “self-cleavage kobs at 40 uM GlcN6P” value in data set [3] was 3.71e-05 ± 1e-05 s⁻¹. The “self-cleavage kobs at 160 uM GlcN6P” value in data set [4] amounted to 8.24e-05 ± 1.9e-05 s⁻¹. For the same variant, the “self-cleavage kobs at 640 uM GlcN6P” value in data set [5] turned out to be 0.000525 ± 0.00011 s⁻¹. For the same variant, the “self-cleavage kobs at 2500 uM GlcN6P” value in data set [6] was 0.000877 ± 0.00019 s⁻¹. In addition, the “self-cleavage kobs at 10000 uM GlcN6P” value in data set [7] amounted to 0.00218 ± 0.00028 s⁻¹.

With U30C A64G, the kcat in data set [1] was determined as 0.000351 ± 3.3e-05 s⁻¹. For the same variant, in data set [2], the KM stood at 1100 ± 200 µM. Besides, in data set [4], the “self-cleavage kobs at 160 uM GlcN6P” value was 4.88e-05 ± 1.1e-05 s⁻¹. The “self-cleavage kobs at 640 uM GlcN6P” value in data set [5] came to 0.000122 ± 1.4e-05 s⁻¹. In addition, the “self-cleavage kobs at 2500 uM GlcN6P” value in data set [6] was found to be 0.000267 ± 3e-05 s⁻¹. In addition, in data set [7], the “self-cleavage kobs at 10000 uM GlcN6P” value came out at 0.000293 ± 4.9e-05 s⁻¹.

As to U45A U49G, in data set [1], the kcat amounted to 0.00163 ± 0.00032 s⁻¹. Moreover, the KM in data set [2] came to 1560 ± 570 µM. In addition, the “self-cleavage kobs at 40 uM GlcN6P” value in data set [3] amounted to 5.25e-05 ± 1e-05 s⁻¹. Moreover, the “self-cleavage kobs at 160 uM GlcN6P” value in data set [4] was found to be 0.000194 ± 4.9e-05 s⁻¹. In addition, in data set [5], the “self-cleavage kobs at 640 uM GlcN6P” value was 0.000385 ± 5.1e-05 s⁻¹. In addition, in data set [6], the “self-cleavage kobs at 2500 uM GlcN6P” value is 0.0012 ± 0.00012 s⁻¹. Besides, in data set [7], the “self-cleavage kobs at 10000 uM GlcN6P” value worked out at 0.00132 ± 0.00015 s⁻¹.

As for A15G U54C, the kcat in data set [1] was determined as 0.0142 ± 0.0059 s⁻¹. The “self-cleavage kobs at 40 uM GlcN6P” value in data set [3] turned out to be 0.000969 ± 0.00018 s⁻¹. Besides, the “self-cleavage kobs at 160 uM GlcN6P” value in data set [4] was 0.0021 ± 0.00098 s⁻¹. The “self-cleavage kobs at 10000 uM GlcN6P” value in data set [7] was 0.0181 ± 0.0046 s⁻¹.

Take G9U A33U: the kcat in data set [1] is less than 1e-05 s⁻¹. Also, the “self-cleavage kobs at 160 uM GlcN6P” value in data set [4] is less than 1e-05 s⁻¹. Further, the “self-cleavage kobs at 640 uM GlcN6P” value in data set [5] was less than 1e-05 s⁻¹. For the same variant, in data set [7], the “self-cleavage kobs at 10000 uM GlcN6P” value was less than 1e-05 s⁻¹.

On to A14G U31A C67G, for which the catalytic constant (kcat) in data set [1] was 0.00052 ± 0.00021 s⁻¹. In data set [4], the “self-cleavage kobs at 160 uM GlcN6P” value was found to be 0.000163 ± 3.6e-05 s⁻¹. Besides, the “self-cleavage kobs at 640 uM GlcN6P” value in data set [5] turned out to be 0.000237 ± 6e-05 s⁻¹. For the same variant, in data set [6], the “self-cleavage kobs at 2500 uM GlcN6P” value stood at 0.000368 ± 0.00011 s⁻¹. In addition, in data set [7], the “self-cleavage kobs at 10000 uM GlcN6P” value amounted to 0.000966 ± 0.0003 s⁻¹.

In the case of U54A U56A, in data set [1], the kcat was 0.0109 ± 0.0014 s⁻¹. In addition, in data set [2], the KM amounted to 2140 ± 380 µM. The “self-cleavage kobs at 40 uM GlcN6P” value in data set [3] was determined as 0.00022 ± 4e-05 s⁻¹. Besides, in data set [4], the “self-cleavage kobs at 160 uM GlcN6P” value stood at 0.000706 ± 0.0002 s⁻¹. The “self-cleavage kobs at 640 uM GlcN6P” value in data set [5] was found to be 0.00224 ± 0.00048 s⁻¹. Moreover, the “self-cleavage kobs at 2500 uM GlcN6P” value in data set [6] is 0.00712 ± 0.002 s⁻¹. In data set [7], the “self-cleavage kobs at 10000 uM GlcN6P” value was found to be 0.00887 ± 0.0017 s⁻¹.
